The chains are these.
B1: TPR 5TU (parent)
chain: GGAUCUUCUCGAUCUAACAAAAAAGACAAAUCUGCCACAAAGCUUGAGAGCAUCUUCGGAUGCAGAGGCGGCAGCCUUCGGUGGCGCGAUAGCGCCAACGUUCUCAACUAUGACACGCAAAACGCGUGCUCCGUUGAAUGGAGUUUAUCAUG

This sample holds only a part of the variants without activity.

In the series the parent is B1. Briefly: polymerase ribozyme fitness, log enrichment relative to wild type (log ratio); higher = more active; in vitro selection for triplet polymerase activity. The method, boiled down: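 Streptavidin-bead capture of gel-excised extended constructs, followed by RT-PCR, closed a single triplicate in vitro selection round. That round began by annealing PCR-built, transcribed mutant libraries of each subunit of a heterodimeric triplet polymerase ribozyme with a biotinylated primer, the partner subunit and triplets, then incubating them frozen at −7 °C. After Illumina sequencing of inputs and outputs, genotypes needed ≥10 input reads and ≥1 read per output. Fitness is the base-2 logarithm of genotype enrichment over wild-type enrichment, using inverse-variance-weighted replicate averages.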
Turning to GGAUCUUCUCGAUCUAACGAAAAAGACAAAUCUGCCACAAAGCUUGAGAGCAUCUUCGGAUGCAGAGGCGGCAGCCAUCGGUGGCGCGAUAGCGCUAACGUUCUCAACUAUGGCACGCAAAACGCGUGCUCCGUUGAAUGGAGUUUAUCAUG [A19G U77A C96U A113G], the “polymerase ribozyme fitness (log ratio)” value is not above -4.2.

As to GGAUCUUCUCGAUCUAACUUAAAAGACAAAUCUGCCACAAAGCUUGAGAGCAUCUUCGGAUGCAGAGGCGGCAGCCUUCGGUGGUGCGAUAGCGCCAACGUUCUCAACUAUGACACGUAAAACGCGUGCUCCGUUGAAUGGAGUUUAUCAUG [A19U A20U C85U C118U], the “polymerase ribozyme fitness (log ratio)” value was -2.63.

Take GGAUCUUCUCGAUCUAACUAAAAAGACAAAUCUGCCACACAGCUUGAGAGCAUCUUCGGAUGCAGAGGCGGCAGCCUUCGGUGGCGCGAUAGCACCAACGUUCUCAUCUAUGACACGCAAAACGCGUGCUCCGUUGAAUGGAGUUUAUCAUG [A19U A40C G94A A107U]: the “polymerase ribozyme fitness (log ratio)” value is not above -4.2.

As to GGAUCUUCUCGAUCUAACUUAAAAGACAAAUCUGCCACAAAGCUUGAGAGCAUCUUGAGAUGCAGAGGCGGCAGCCUUCGGUGGCGCUAUACCGCCAACGUUCUCAACUAUGACACGCAAAACGAGUGCUUCGUUGAAUGGAGUUUACAAUG [A19U A20U C57G G58A G88U G92C C125A C131U U148C C149A], the “polymerase ribozyme fitness (log ratio)” value is not above -4.2.

With GGAUCUUCUCGAUCUAACUAAAUAGACAAAUCUGCCACAAAGCUUGAGAGCAUCUUCGGAUGCAGAGGCGGCAGCCCUCGGUGGCGUGAUAGCGCCAACGUUCUCUAGUAUGACACGCAAAAGGCGUGCUCCGUUGAAUGGAGUUUAUCAUG [A19U A23U U77C C87U A106U C108G C123G], the “polymerase ribozyme fitness (log ratio)” value was -4.07.

Consider GGAUCUUCUCGAUCUAACGAAAAAGACAAAUCUGCCACAAAGCUGGAGAGCAUCUUCGGAUGCAGAGGCGGCAGCCUUCGGUGGCGCGAGAGCGCCAACGUUCUCAACUAUGACACGCAAAACACGUGCUCCGUUGAAUGGAGUUUAUCAUG [A19G U45G U90G G124A], for which the “polymerase ribozyme fitness (log ratio)” value was not above -4.2.

GGAUCUUCUCGAUCUAACUAAAUAGUCAAAUCUGCCACAAAGCUUGAGAGCAUUUUCGGGUGCAGAGGCGGCAGCCUUCGGUGGCGCGAUAGCGCCAACGUUCUCAACUAUGACACGCAUAACGCGUGCUCCGUUGAAUGGAGUUUAUCAGG [A19U A23U A26U C54U A60G A120U U151G]: the “polymerase ribozyme fitness (log ratio)” value is not above -4.2.

On to GGAUCUUCUCGAUCUAACUAUAUAGACAAAUCUGCCACAAAGCUUGAGAGCAUCUUCGGAUGCAGACGCGGCAGCCUUCGGUGGCGCAAUAGCGCCAACGUCCUCAACUAUGACACGCAAAACGCGUGCUCCGUUGAAUGGAGUUUAUCGUG [A19U A21U A23U G67C G88A U102C A150G], for which the “polymerase ribozyme fitness (log ratio)” value was not above -4.2.

On to GGAUCUUCUCGAUCUAACUAAAAAGACAAUUCUGCGACAAAGCUUGAGAGCAUCUUCGGAUGCAGAGGCGGCAGCCUUCGGUGGCGCGAUAGCGCCUACGUUCUCAACUAUGACACGCAAAACGCGUGCUCCGUUGAAUGGAGUUUAUCAUG [A19U A30U C36G A97U], for which the “polymerase ribozyme fitness (log ratio)” value was not above -4.2.

GGAUCUUCUCGAUCUAACGAAAAAGACAAAUCUGCCACAAAGCGUGAGAGCAUCUUCGGAUGUAGAGGCGGCAGCGUUCGGUGGCGCGAUAGCGCCAACGUUAUCAACUAUGACACGCAAAACGAGUGCUCCGUUGAAUGGAGUUUAUCAUG [A19G U44G C63U C76G C103A C125A]: the “polymerase ribozyme fitness (log ratio)” value is not above -4.2.

With GGAUCUUCUCGAUCUAACUAAAAAGACAAAUCUGCCACUAAGCUUGAGAGCAUCUACGGAUGCAGAGGCGGCAGCCUUCGGUGGCGCGAUAGCGCCAACGUUCUCAACUAUGACACGCAAAACGCGUGCUCCGUUGAAUGGAGUUUAUCAUG [A19U A39U U56A], the “polymerase ribozyme fitness (log ratio)” value was -2.83.

Consider GGAUCUUCUCGAUCUAACUCAAAAGACAAAUCUGCCACAAAGCUUGAGAGCAUCUUCGGAUGCAGAGGCGGCAGCCUUCGGUGGCGCGAUAGCGCCAACGUUCUCAACGAUGACACGCAAAACGCGUGCUCCGUUGAAUGGAGUUUAUCAUG [A19U A20C U109G], for which the “polymerase ribozyme fitness (log ratio)” value was -2.07.

As to GGAUCUUCUCGAUCUAACUACAAAGACAAAUCUGCCACAAAGCUUGAGAGCAUCUUCGGAUGCAGAGGCGGCAGCCUUCGGUGGCGCGAUAGCGCCAACGUUCUCAACUAUGACACGCACAACGCGUGCUCCGUUGAAUGGAGUUUAUCAUG [A19U A21C A120C], the “polymerase ribozyme fitness (log ratio)” value is -1.83.

Consider GGAUCUUCUCGAUCUAACGAAAAAGACAAAUCUGCCACAAAGCUUGAGAGCAACUUCGGAUGCAGAGGCGGCAGCCUUCGGUGGCGCGAUGGCGUCAACGUUCACAACUAUGACACGCAACACGCCUGCUCCGUGGAAUGGAGUUUAUCAUG [A19G U53A A91G C95U U104A A121C G126C U135G], for which the “polymerase ribozyme fitness (log ratio)” value was not above -4.2.

In the case of GGAUCUUCUCGAUCUAACUAAAAAGACUAAUCUGCCACAAAGCUUGAGAGCAUCUUCGGAUGCAGAGGCGGCAGCCUUCGGUCGCGCGAUAGCGCCAACGUUCUCAACUAUGACACGCAAAACGCGUGCUCCGUUGAAUGGAGUUUAUCAUG [A19U A28U G83C], the “polymerase ribozyme fitness (log ratio)” value is not above -4.2.

As for GGAUCUUCUCGAUCUAACGAAAAAGACAAAUCUGCCACAAAGCUUGAGAGCAUCUUCGGAUGCAGAGGCGGCAGCCUUCGGUGGCGCGAUAGCGCCAACGUGCUCAACUAUGACACGCAAAACGCGUGCUCCGUUGAAUGGAGUUUAUCAUG [A19G U102G], the “polymerase ribozyme fitness (log ratio)” value is -3.38.

Take GGAUCUUCUCGAUCUAACGAAAAAGACAAAUCUGCCACAAAGCUUGAGAGCAACUUUGGAUGCAGAGGCGGCAGCCUUCGGUGGCGCGAUAGCGCAAACCUUCUCAACUAUGACACGCAAAACGCGUGCUCCGCUGAAUGGACUUUAUCAUG [A19G U53A C57U C96A G100C U134C G143C]: the “polymerase ribozyme fitness (log ratio)” value was not above -4.2.

With GGAUCUUCUCGAUCUAACUAAAAAGACAAAUCUGCCACAACGCUUGAGACCAUCUUCGGAUGCAGAGGCGGCAGCCUUCGGUGGCGCGAUAGCGCUAAUGGUCUCAACUAUGACACGCAAAACGCGUGCUCCGUUGAAUGGAGUUUAUCAUG [A19U A41C G50C C96U C99U U101G], the “polymerase ribozyme fitness (log ratio)” value was not above -4.2.

Turning to GGAUCUUCUCGAUCUAACUACAAAGACAAAUCUGCCACAAAGCUUGAGAGCAUCUUCGGAUGCAGAGGCGGCAGCCUUCGGUGGCGCGAUAGCGCUAACGUUCUCAACUAUGACACGCAAAACGCGUGAUCCGUUGAAUGGAGUUUAUCAUG [A19U A21C C96U C129A], the “polymerase ribozyme fitness (log ratio)” value is -4.13.

The values above are taken from the RNAGym collection of RNA variant scans (doi:10.1073/pnas.2313332121).
